Measurements reported in patent publication US10280205B2, “Method for treating cancer with an activated T lymphocyte that selectively recognizes a cancer cell consisting of specific peptide” (immatics biotechnologies GmbH, priority 2015, dated 2019).

The substances below were run against HLA-A*02:01 (Homo sapiens, UniProt P04439, D140Y/D185E/D98H/E176V/E277Q/G131W/G231S/I119V/I121R/I166T/I218V/L300P/L318F/N151K/N90K/P208A/P217A/Q86G/Q94H/R138H/R169H/T345S) (assay: MHC binding assay: UV-ligand exchange with beta2m ELISA (exchange yield)). Details: binding to HLA-A*02:01, β2m ELISA.
In short: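 Exchange yield reflects how much β2m remains bound, measured by ELISA: streptavidin capture of 100-fold diluted monomers, HRP anti-β2m at 37° C. for 1 h, TMB read at 450 nm. Monomers come from UV cleavage of a conditional HLA-A*02:01 ligand in the presence of the candidate peptide.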

Substance	Peptide exchange (MHC class I binding score, peptide exchange yield)
106 (LLYDAVHIVSV; listed as Homo sapiens) [compound 106]	“+++” (≥50 = +++)
54 (SLLEQGKEPWMV; listed as Homo sapiens) [compound 54]	“+++” (≥50 = +++)
121 (GVVDPRAISVL; listed as Homo sapiens) [compound 121]	“++” (≥20% = ++)
146 (SLATAGDGLIEL; listed as Homo sapiens) [compound 146]	“++” (≥20% = ++)
430 (HLYSSIEHLTT; listed as Homo sapiens) [compound 430]	“+++” (≥50 = +++)
258 (ELAERVPAI; listed as Homo sapiens) [compound 258]	“++” (≥20% = ++)
448 (NLLETKLQL; listed as Homo sapiens) [compound 448]	“+++” (≥50 = +++)
183 (FGLDLVTEL; listed as Homo sapiens) [compound 183]	“+++” (≥50 = +++)
35 (KINDTIYEV; listed as Homo sapiens) [compound 35]	“+++” (≥50 = +++)
428 (KLGHTDILVGV; listed as Homo sapiens) [compound 428]	“++” (≥20% = ++)
52 (FLLAHGLGFLL; listed as Homo sapiens) [compound 52]	“++++” (≥75% = ++++)
453 (KLLEATSAV; listed as Homo sapiens) [compound 453]	“++” (≥20% = ++)
480 (ALLEDSCHYL; listed as Homo sapiens) [compound 480]	“+++” (≥50 = +++)
80 (FLYDNLVESL; listed as Homo sapiens) [compound 80]	“++” (≥20% = ++)
358 (ALDEYTSEL; listed as Homo sapiens) [compound 358]	“++++” (≥75% = ++++)
84 (VTFGEKLLGV; listed as Homo sapiens) [compound 84]	“++” (≥20% = ++)
169 (NLPEYLPFV; listed as Homo sapiens) [compound 169]	“+++” (≥50 = +++)
550 (FLYDEIEAEVNL; listed as Homo sapiens) [compound 550]	“+++” (≥50 = +++)
303 (AILPQLFMV; listed as Homo sapiens) [compound 303]	“++++” (≥75% = ++++)
408 (VLDDSIYLV; listed as Homo sapiens) [compound 408]	“++” (≥20% = ++)
251 (ALYTGFSILV; listed as Homo sapiens) [compound 251]	“++” (≥20% = ++)
261 (YVLEFLEEI; listed as Homo sapiens) [compound 261]	“++” (≥20% = ++)

Substance	Peptide exchange (MHC class I binding score, peptide exchange yield)
297 (VLADIELAQA; listed as Homo sapiens) [compound 297]	“+++” (≥50 = +++)
377 (FLLDSSASV; listed as Homo sapiens) [compound 377]	“++” (≥20% = ++)
370 (SLLQDLVSV; listed as Homo sapiens) [compound 370]	“+++” (≥50 = +++)
449 (KLAEGLDIQL; listed as Homo sapiens) [compound 449]	“+++” (≥50 = +++)
42 (VLLQKIVSA; listed as Homo sapiens) [compound 42]	“+++” (≥50 = +++)
186 (TLFFQQNAL; listed as Homo sapiens) [compound 186]	“++” (≥20% = ++)
103 (TLAEEVVAL; listed as Homo sapiens) [compound 103]	“+++” (≥50 = +++)
91 (IMQDFPAEIFL; listed as Homo sapiens) [compound 91]	“++++” (≥75% = ++++)
159 (GLVGNPLPSV; listed as Homo sapiens) [compound 159]	“++++” (≥75% = ++++)
81 (FLFSQLQYL; listed as Homo sapiens) [compound 81]	“++” (≥20% = ++)
549 (AMLENASDIKL; listed as Homo sapiens) [compound 549]	“+++” (≥50 = +++)
520 (LAVHPSGVAL; listed as Homo sapiens) [compound 520]	“+” (≥10% = +)
597 (KLLEGQVIQL; listed as Homo sapiens) [compound 597]	“+++” (≥50 = +++)
161 (ALLEGVNTV; listed as Homo sapiens) [compound 161]	“+++” (≥50 = +++)
617 (ALMYESEKVGV; listed as Homo sapiens) [compound 617]	“+++” (≥50 = +++)
24 (SLSDGLEEV; listed as Homo sapiens) [compound 24]	“++” (≥20% = ++)
525 (VLLEAGEGLVTI; listed as Homo sapiens) [compound 525]	“+++” (≥50 = +++)
151 (KILQQLVTL; listed as Homo sapiens) [compound 151]	“+++” (≥50 = +++)
606 (ALWETEVYI; listed as Homo sapiens) [compound 606]	“+++” (≥50 = +++)
222 (NLIENVQRL; listed as Homo sapiens) [compound 222]	“++” (≥20% = ++)
177 (YLLPEEYTSTL; listed as Homo sapiens) [compound 177]	“++++” (≥75% = ++++)

The remaining lines, values ahead:

Peptide exchange (MHC class I binding score, peptide exchange yield)	Substance
“+++” (≥50 = +++)	472 (KLLEVSDDPQV; listed as Homo sapiens) [compound 472]
“+++” (≥50 = +++)	330 (QLALKVEGV; listed as Homo sapiens) [compound 330]
“++” (≥20% = ++)	145 (FLATSGTLAGI; listed as Homo sapiens) [compound 145]
“++” (≥20% = ++)	212 (ALWDQDNLSV; listed as Homo sapiens) [compound 212]
“+++” (≥50 = +++)	201 (RLVDYLEGI; listed as Homo sapiens) [compound 201]
“+++” (≥50 = +++)	134 (YLQELIFSV; listed as Homo sapiens) [compound 134]
“+++” (≥50 = +++)	502 (RLLAQVPGL; listed as Homo sapiens) [compound 502]
“+++” (≥50 = +++)	571 (LLLTTIPQI; listed as Homo sapiens) [compound 571]
“+++” (≥50 = +++)	182 (MLLEAPGIFL; listed as Homo sapiens) [compound 182]
“+++” (≥50 = +++)	27 (ILADIVISA; listed as Homo sapiens) [compound 27]
“+++” (≥50 = +++)	359 (YLLPESVDL; listed as Homo sapiens) [compound 359]
“++” (≥20% = ++)	232 (ALLEAQDVELYL; listed as Homo sapiens) [compound 232]
“+++” (≥50 = +++)	123 (NLWDLTDASVV; listed as Homo sapiens) [compound 123]
“++” (≥20% = ++)	590 (SLIEKLWQT; listed as Homo sapiens) [compound 590]
“+++” (≥50 = +++)	26 (ALLELAEEL; listed as Homo sapiens) [compound 26]
“++++” (≥75% = ++++)	68 (SLMELPRGLFL; listed as Homo sapiens) [compound 68]
“+++” (≥50 = +++)	564 (TVTNAVVTV; listed as Homo sapiens) [compound 564]
“+++” (≥50 = +++)	102 (YLFESEGLVL; listed as Homo sapiens) [compound 102]
“+++” (≥50 = +++)	587 (VMNDRLYAI; listed as Homo sapiens) [compound 587]
“+” (≥10% = +)	153 (FLIANVLYL; listed as Homo sapiens) [compound 153]
“+++” (≥50 = +++)	521 (MLLTKLPTI; listed as Homo sapiens) [compound 521]
“++” (≥20% = ++)	447 (QLVPALAKV; listed as Homo sapiens) [compound 447]
“++” (≥20% = ++)	615 (VLPPDTDPA; listed as Homo sapiens) [compound 615]
“+++” (≥50 = +++)	444 (GLLRDEALAEV; listed as Homo sapiens) [compound 444]
